From IntAct's records for PubMed 37100772

B1: Nucleoprotein (Zaire ebolavirus (strain Mayinga-76)), P18272 (parent)
chain: MDSRPQKIWMAPSLTESDMDYHKILTAGLSVQQGIVRQRVIPVYQVNNLEEICQLIIQAFEAGVDFQESADSFLLMLCLHHAYQGDYKLFLESGAVKYLEGHGFRFEVKKRDGVKRLEELLPAVSSGKNIKRTLAAMPEEETTEANAGQFLSFASLFLPKLVVGEKACLEKVQRQIQVHAEQGLIQYPTAWQSVGHMMVIFRLMRTNFLIKFLLIHQGMHMVAGHDANDAVISNSVAQARFSGLLIVKTVLDHILQKTERGVRLHPLARTAKVKNEVNSFKAALSSLAKHGEYAPFARLLNLSGVNNLEHGLFPQLSAIALGVATAHGSTLAGVNVGEQYQQLREAATEAEKQLQQYAESRELDHLGLDDQEKKILMNFHQKKNEISFQQTNAMVTLRKERLAKLTEAITAASLPKTSGHYDDDDDIPFPGPINDDDNPGHQDDDPTDSQDTTIPDVVVDPDDGSYGEYQSYSENGMNAPDDLVLFDLDEDDEDTKPVPNRSTKGGQQKNSQKGQHIEGRQTQSRPIQNVPGPHRTIHHASAPLTDNDRRNEPSGSTSPRMLTPINEEADPLDDADDETSSLPPLESDDEEQDRDGTSNRTPTVAPPAPVYRDHSEKKELPQDEQQDQDHTQEARNQDSDNTQSEHSFEEMYRHILRSQGPFDAVLYYHMMKDEPVVFSTSDGKEYTYPDSLEEEYPPWLTEKEAMNEENRFVTLDGQQFYWPVMNHKNKFMAILQHHQ
partner: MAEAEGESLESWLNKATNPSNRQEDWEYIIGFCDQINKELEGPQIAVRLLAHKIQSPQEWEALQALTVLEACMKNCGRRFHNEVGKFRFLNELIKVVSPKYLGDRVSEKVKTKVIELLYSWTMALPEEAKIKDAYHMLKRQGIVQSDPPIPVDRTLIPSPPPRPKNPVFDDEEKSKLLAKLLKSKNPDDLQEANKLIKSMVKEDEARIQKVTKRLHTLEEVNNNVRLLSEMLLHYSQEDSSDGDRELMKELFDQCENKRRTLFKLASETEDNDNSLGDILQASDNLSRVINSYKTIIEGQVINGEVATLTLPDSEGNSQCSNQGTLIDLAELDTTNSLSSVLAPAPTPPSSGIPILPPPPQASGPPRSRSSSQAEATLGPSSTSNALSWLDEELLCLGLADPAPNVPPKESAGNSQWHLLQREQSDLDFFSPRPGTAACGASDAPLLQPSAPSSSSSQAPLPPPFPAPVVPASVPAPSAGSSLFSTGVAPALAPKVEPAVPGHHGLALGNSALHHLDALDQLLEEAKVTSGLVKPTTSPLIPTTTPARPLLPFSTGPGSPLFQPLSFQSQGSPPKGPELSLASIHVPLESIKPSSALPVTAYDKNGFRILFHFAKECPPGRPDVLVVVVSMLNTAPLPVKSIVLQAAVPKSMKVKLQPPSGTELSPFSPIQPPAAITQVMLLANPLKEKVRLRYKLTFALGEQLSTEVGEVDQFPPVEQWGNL
B2: Nucleoprotein (Zaire ebolavirus (strain Mayinga-76)), P18272 (parent)
chain: B1 chain

Variants of: B1
Settings: with gga3_human GGA3, Q9NZ52

Variant | effect of a mutation on the interaction
Y469A | disrupting interaction strength

Variants of: B2
Settings: with ap2m1_human AP2M1, Q96CW1
ap2m1_human AP2M1, Q96CW1, sequence (Q96CW1 whole entry): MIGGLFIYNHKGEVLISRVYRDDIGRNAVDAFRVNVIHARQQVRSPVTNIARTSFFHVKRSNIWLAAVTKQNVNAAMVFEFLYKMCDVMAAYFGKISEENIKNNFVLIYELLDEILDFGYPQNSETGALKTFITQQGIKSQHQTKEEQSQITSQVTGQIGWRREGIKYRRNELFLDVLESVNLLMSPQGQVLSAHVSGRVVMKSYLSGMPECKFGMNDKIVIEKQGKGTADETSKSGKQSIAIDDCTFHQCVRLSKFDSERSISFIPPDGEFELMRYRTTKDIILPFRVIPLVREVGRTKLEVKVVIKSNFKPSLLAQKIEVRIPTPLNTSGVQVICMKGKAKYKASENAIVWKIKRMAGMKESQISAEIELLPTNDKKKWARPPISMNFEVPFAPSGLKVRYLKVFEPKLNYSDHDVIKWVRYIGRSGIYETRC

Variant | effect of a mutation on the interaction
Y340A;L343A | with no effect
